Results reported in patent publication US20250277006A1.

Biological target: adalimumab
Assay: SPR; ligand on CM5; max response at 800 nM, rounded to 50 Ru

Substance | max response (Ru)
ZGE0214 (domain E with A/R/I at positions 33/40/51) (designed binder) | 4100
ZGE0234 (domain E with A/G/R at positions 33/40/51) (designed binder) | 2950
